From the supplement of paper PMC10065799, “High-throughput profiling of sequence recognition by tyrosine kinases and SH2 domains using bacterial peptide display” (eLife, 2023)

Each sequence was assayed on Fer (mouse) (assay: phosphorylation enrichment, bacterial display (enrichment ratio); higher = better substrate or ligand; peptides without Tyr show the background).
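Note: 11-residue human phosphosite peptides and single-mutation variants displayed on the E. coli surface, counted by deep sequencing, each peptide's frequency after selection divided by its frequency in the unselected input library; frequency after pTyr selection over input frequency; kinase dosed for 20-30% of maximal phosphorylation in three min.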

Sequence	phosphorylation enrichment
LVGTPYWMAPE [PAK5_Y608]	0.573
EEGNPSFSSAR [MCCC2_Y520_Y520S_YF]	0.426
FPRAWYRRSIA [KIAA1109_Y4272]	0.473
NSNSDYVDILP [SH2D1B_Y127_V130I]	0.682
PNKAVYTKMMT [G6PD_Y401_E398K]	0.656
CTNIHYNFMCN [TP53_Y234_T231N_YF]	0.481
QKINNYLTVPA [SLC9A1_Y683]	0.497
FGYPGYQSKHY [TIMP3_Y177]	0.443
AKIDGYITSYR	0.338
YRTGHYLCNAC [GATA1_Y223_D218Y]	0.271
FHRQLYHKCTH [F12_Y58_YF]	0.398
EQFELYCEMGS [CBL_Y371_YF]	1
RMETAYGPSVT [MXRA5_Y2717_E2716A]	0.617
AADGRYEVLFL [SEMA3F_Y478]	2.97
RRFLFYFSFLL [PTEN_Y177_V175L_YF]	0.398
CNNFICGGCRG [SPINT2_Y163_Y163C]	0.443
LATINYPFEKG [NDUFS8_Y84_P79L]	0.5

Sequence	phosphorylation enrichment
SHSMRYFDTSV [HLA-C_Y31_A35S]	0.37
ADKSAYLMGVN [MYH7_Y386_L390V]	0.396
RTESQYQENRG [LRCH3_Y354_R350T]	0.539
SRASFYRKGGC [ALK_Y1283_Y1278S_YF]	0.476
TMEDSYRKQVV [KRAS_Y40_I36M]	0.403
DAGTDYVGISC [FREM2_Y2061_R2066C]	0.558
SVVVPYETPEV [TP53_Y220_P222T]	0.639
QSKGIYYVQLE [MGAT4B_Y262]	0.763
DYYDLYGGEKL [PTPN11_Y66_F71L]	1.32
GLIPAYHWVIM [NMNAT1_Y64_R66W]	5.52
VTPVMYTFDEF [COL10A1_Y623_G618V_YF]	0.458
KEEEDYREENN [BMS1_Y651_K652R]	0.585
PRRRFYVVACD [RNASE3_Y134_G130R]	0.433
HAVFIYDICHV [TWNK_Y508_V507I_YF]	4.14
YKPGFYNLKEK [LAMA1_Y490_C485Y]	0.432
DFKIIYIAPMR [SNRNP200_Y540]	0.447

These sequences were tested on c-Abl (mouse) in the same assay as above.

Sequence	phosphorylation enrichment
LVGTPYWMAPE [PAK5_Y608]	0.694
EEGNPSFSSAR [MCCC2_Y520_Y520S_YF]	0.681
FPRAWYRRSIA [KIAA1109_Y4272]	0.552
NSNSDYVDILP [SH2D1B_Y127_V130I]	1
PNKAVYTKMMT [G6PD_Y401_E398K]	0.426
CTNIHYNFMCN [TP53_Y234_T231N_YF]	0.655
QKINNYLTVPA [SLC9A1_Y683]	0.833
FGYPGYQSKHY [TIMP3_Y177]	0.496
AKIDGYITSYR	0.565
YRTGHYLCNAC [GATA1_Y223_D218Y]	0.524
FHRQLYHKCTH [F12_Y58_YF]	0.502
EQFELYCEMGS [CBL_Y371_YF]	1.02
RMETAYGPSVT [MXRA5_Y2717_E2716A]	0.511
AADGRYEVLFL [SEMA3F_Y478]	0.624
RRFLFYFSFLL [PTEN_Y177_V175L_YF]	0.613
CNNFICGGCRG [SPINT2_Y163_Y163C]	0.697
LATINYPFEKG [NDUFS8_Y84_P79L]	0.64

Sequence	phosphorylation enrichment
SHSMRYFDTSV [HLA-C_Y31_A35S]	0.455
ADKSAYLMGVN [MYH7_Y386_L390V]	0.572
RTESQYQENRG [LRCH3_Y354_R350T]	0.799
SRASFYRKGGC [ALK_Y1283_Y1278S_YF]	0.529
TMEDSYRKQVV [KRAS_Y40_I36M]	0.594
DAGTDYVGISC [FREM2_Y2061_R2066C]	0.688
SVVVPYETPEV [TP53_Y220_P222T]	0.849
QSKGIYYVQLE [MGAT4B_Y262]	1.1
DYYDLYGGEKL [PTPN11_Y66_F71L]	0.871
GLIPAYHWVIM [NMNAT1_Y64_R66W]	0.92
VTPVMYTFDEF [COL10A1_Y623_G618V_YF]	0.662
KEEEDYREENN [BMS1_Y651_K652R]	0.877
PRRRFYVVACD [RNASE3_Y134_G130R]	0.715
HAVFIYDICHV [TWNK_Y508_V507I_YF]	1.89
YKPGFYNLKEK [LAMA1_Y490_C485Y]	0.971
DFKIIYIAPMR [SNRNP200_Y540]	4.59

What follows are sequences tested on c-Src in the same assay as above.

Sequence	phosphorylation enrichment
LVGTPYWMAPE [PAK5_Y608]	2.71
EEGNPSFSSAR [MCCC2_Y520_Y520S_YF]	0.433
FPRAWYRRSIA [KIAA1109_Y4272]	0.477
NSNSDYVDILP [SH2D1B_Y127_V130I]	0.573
PNKAVYTKMMT [G6PD_Y401_E398K]	0.601
CTNIHYNFMCN [TP53_Y234_T231N_YF]	0.562
QKINNYLTVPA [SLC9A1_Y683]	0.524
FGYPGYQSKHY [TIMP3_Y177]	0.534
AKIDGYITSYR	0.417
YRTGHYLCNAC [GATA1_Y223_D218Y]	0.31
FHRQLYHKCTH [F12_Y58_YF]	0.375
EQFELYCEMGS [CBL_Y371_YF]	1.49
RMETAYGPSVT [MXRA5_Y2717_E2716A]	0.646
AADGRYEVLFL [SEMA3F_Y478]	0.489
RRFLFYFSFLL [PTEN_Y177_V175L_YF]	0.683
CNNFICGGCRG [SPINT2_Y163_Y163C]	0.415
LATINYPFEKG [NDUFS8_Y84_P79L]	0.467

Sequence	phosphorylation enrichment
SHSMRYFDTSV [HLA-C_Y31_A35S]	0.432
ADKSAYLMGVN [MYH7_Y386_L390V]	0.41
RTESQYQENRG [LRCH3_Y354_R350T]	0.557
SRASFYRKGGC [ALK_Y1283_Y1278S_YF]	0.575
TMEDSYRKQVV [KRAS_Y40_I36M]	0.38
DAGTDYVGISC [FREM2_Y2061_R2066C]	0.546
SVVVPYETPEV [TP53_Y220_P222T]	0.505
QSKGIYYVQLE [MGAT4B_Y262]	3.33
DYYDLYGGEKL [PTPN11_Y66_F71L]	5.5
GLIPAYHWVIM [NMNAT1_Y64_R66W]	0.526
VTPVMYTFDEF [COL10A1_Y623_G618V_YF]	0.715
KEEEDYREENN [BMS1_Y651_K652R]	0.536
PRRRFYVVACD [RNASE3_Y134_G130R]	0.545
HAVFIYDICHV [TWNK_Y508_V507I_YF]	2.49
YKPGFYNLKEK [LAMA1_Y490_C485Y]	0.491
DFKIIYIAPMR [SNRNP200_Y540]	0.572

What follows are sequences tested against MERTK (UniProt Q12866) in the same assay as above.
Sequence of MERTK (Q12866 whole entry, looked up): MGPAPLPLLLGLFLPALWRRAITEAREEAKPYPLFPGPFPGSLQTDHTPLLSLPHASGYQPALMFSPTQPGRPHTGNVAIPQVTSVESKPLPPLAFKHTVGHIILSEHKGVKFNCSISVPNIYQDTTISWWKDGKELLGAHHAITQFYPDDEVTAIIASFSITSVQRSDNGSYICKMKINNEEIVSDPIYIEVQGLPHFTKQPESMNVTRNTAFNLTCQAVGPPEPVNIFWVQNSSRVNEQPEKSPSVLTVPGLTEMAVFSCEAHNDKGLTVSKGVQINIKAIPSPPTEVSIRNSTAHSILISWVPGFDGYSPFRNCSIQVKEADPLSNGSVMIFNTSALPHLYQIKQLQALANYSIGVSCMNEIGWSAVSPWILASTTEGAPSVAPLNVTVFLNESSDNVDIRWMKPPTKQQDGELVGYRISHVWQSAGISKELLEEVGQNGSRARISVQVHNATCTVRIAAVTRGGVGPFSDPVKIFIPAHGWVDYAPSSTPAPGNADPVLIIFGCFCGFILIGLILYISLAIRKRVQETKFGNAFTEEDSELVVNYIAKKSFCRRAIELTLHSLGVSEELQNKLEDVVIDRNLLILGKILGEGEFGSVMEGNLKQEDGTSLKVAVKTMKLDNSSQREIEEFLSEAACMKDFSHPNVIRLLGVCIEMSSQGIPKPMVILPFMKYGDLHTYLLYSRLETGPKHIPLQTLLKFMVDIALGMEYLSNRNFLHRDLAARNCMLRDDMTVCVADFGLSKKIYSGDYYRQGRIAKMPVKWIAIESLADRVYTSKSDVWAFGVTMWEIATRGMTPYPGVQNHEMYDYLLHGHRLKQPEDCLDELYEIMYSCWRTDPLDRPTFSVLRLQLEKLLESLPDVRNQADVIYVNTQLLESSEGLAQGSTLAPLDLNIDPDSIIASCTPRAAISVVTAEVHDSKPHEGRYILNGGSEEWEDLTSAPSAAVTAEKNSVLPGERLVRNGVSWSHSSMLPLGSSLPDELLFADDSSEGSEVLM

Sequence	phosphorylation enrichment
LVGTPYWMAPE [PAK5_Y608]	0.856
EEGNPSFSSAR [MCCC2_Y520_Y520S_YF]	0.459
FPRAWYRRSIA [KIAA1109_Y4272]	0.473
NSNSDYVDILP [SH2D1B_Y127_V130I]	0.6
PNKAVYTKMMT [G6PD_Y401_E398K]	0.332
CTNIHYNFMCN [TP53_Y234_T231N_YF]	0.423
QKINNYLTVPA [SLC9A1_Y683]	0.65
FGYPGYQSKHY [TIMP3_Y177]	0.435
AKIDGYITSYR	0.415
YRTGHYLCNAC [GATA1_Y223_D218Y]	0.355
FHRQLYHKCTH [F12_Y58_YF]	0.385
EQFELYCEMGS [CBL_Y371_YF]	1.58
RMETAYGPSVT [MXRA5_Y2717_E2716A]	0.444
AADGRYEVLFL [SEMA3F_Y478]	0.749
RRFLFYFSFLL [PTEN_Y177_V175L_YF]	0.53
CNNFICGGCRG [SPINT2_Y163_Y163C]	0.488
LATINYPFEKG [NDUFS8_Y84_P79L]	0.377

Sequence	phosphorylation enrichment
SHSMRYFDTSV [HLA-C_Y31_A35S]	0.386
ADKSAYLMGVN [MYH7_Y386_L390V]	0.338
RTESQYQENRG [LRCH3_Y354_R350T]	0.688
SRASFYRKGGC [ALK_Y1283_Y1278S_YF]	0.567
TMEDSYRKQVV [KRAS_Y40_I36M]	0.411
DAGTDYVGISC [FREM2_Y2061_R2066C]	0.4
SVVVPYETPEV [TP53_Y220_P222T]	0.556
QSKGIYYVQLE [MGAT4B_Y262]	8.64
DYYDLYGGEKL [PTPN11_Y66_F71L]	3.9
GLIPAYHWVIM [NMNAT1_Y64_R66W]	1.8
VTPVMYTFDEF [COL10A1_Y623_G618V_YF]	0.962
KEEEDYREENN [BMS1_Y651_K652R]	0.601
PRRRFYVVACD [RNASE3_Y134_G130R]	0.73
HAVFIYDICHV [TWNK_Y508_V507I_YF]	3.24
YKPGFYNLKEK [LAMA1_Y490_C485Y]	0.366
DFKIIYIAPMR [SNRNP200_Y540]	0.437
